The test system of this data set is ATP. Kind of data set: switch fluorescence ratio, 500 uM ATP over buffer (Cy3 cluster intensity, sum of 5 cycles each) (fold (ratio)); higher = stronger signal-on switching upon ATP binding; sequences stand for … in TCGTCGGCAGCGTCAGATGTGTATAAGAGACAGTTTTTTTTTTTTTTTTTTTTTTTTT…TC. The note with it: aptamer strand: ATP DNA aptamer (quencher-CACCTGGGGGAGTATTGCGGAGGAAGG + anchor), 100 nM annealed; ATP concentration: 500 uM. In short, it runs like this:
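Values give the fluorescence ratio for each switch-domain sequence, averaged from per-cluster ratios of summed target-cycle to summed buffer-cycle Cy3 intensity. The Cy3-labelled switching-strand clusters sat on a modified Illumina MiSeq flow-cell, were annealed to 100 nM quencher-labelled ATP aptamer, and were imaged in selection buffer, then after 15 min with 500 uM ATP at 22 °C. Five cycles ran with NaOH stripping and re-annealing between them, and clusters outside 100-1000 RFU were excluded.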

± gives the standard deviation of the averaged measurements.
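Also: ATP exposure 15 min at 22 °C before imaging.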

Consider CCTTTGCAGG, for which the switch fluorescence ratio was found to be 2.45 ± 0.27. TCGTTGGGTG: the switch fluorescence ratio was 0.994 ± 0.015. With AGTTTCCGGA the figure was 0.992 ± 0.016. Regarding ATTGAATTTG, the switch fluorescence ratio was determined as 0.9999 ± 0.0013. With CTGGGGGATG the figure was 0.9863 ± 0.0027; with AGAGGGCTTT, 0.988 ± 0.032; with TTGGTGAGTT, 0.981 ± 0.029. With ATTTTGCTCT the figure was 1.02 ± 0.026; with ACTATGAGCC, 1.01 ± 0.021; with GCGGGAGGAT, 1.031 ± 0.01. With TAGACTTTGG the figure was 0.968 ± 0.025; with TGTGGCACGG, 0.966 ± 0.018.

Take AAAGGGTATA: the switch fluorescence ratio was 0.978 ± 0.064.

Take GTACGAGTGC: the switch fluorescence ratio is 0.976 ± 0.019. As for TCATGCATCT, the switch fluorescence ratio turned out to be 1.01 ± 0.072. To TAGGAGGTGG belongs 1.03 ± 0.041; to TGGGAATGTT, 1.01 ± 0.011.

In the case of AATCGTACAG, the switch fluorescence ratio worked out at 1.07 ± 0.019. With GCGTTTGGTA the figure was 0.988 ± 0.04. In the case of GGGTGACGAG, the switch fluorescence ratio amounted to 1 ± 0.038. In the case of TAAATAGTTT, the switch fluorescence ratio is 0.993 ± 0.013. On to TTTGAACTTT, for which the switch fluorescence ratio was 0.991 ± 0.033.

Take GTTTGGCCTT: the switch fluorescence ratio came out at 1.04 ± 0.012. With TGGATTACGT the figure was 1.018 ± 0.0032; with TGAACGGGGG, 1.02 ± 0.049; with TCACTTTGTG, 1.01 ± 0.043. With TATGCTGGTT the figure was 1.05 ± 0.061; with ATACCAGGGG, 1.08 ± 0.19; with CTTTATGCGA, 1.033 ± 0.0093. To CGGGGCCATG belongs 1.02 ± 0.068. For the sequence CATCAAAAAT, the switch fluorescence ratio came to 1.29 ± 0.3. To CGTGAGGGGT belongs 0.994 ± 0.026; to AAGGGATTCT, 1.03 ± 0.084. To AAGGAAGTTT belongs 1.06 ± 0.18. To AAGTGGTTAG belongs 0.98 ± 0.027. TACTCACGAA: the switch fluorescence ratio was determined as 1.42 ± 0.027. With AAGATTAGTG the figure was 0.9828 ± 0.0067; with GTCATTCCGC, 1.65 ± 0.065. Turning to ACCGGGTTGG, the switch fluorescence ratio was 0.999 ± 0.01. For AAAGGGTTGC, the switch fluorescence ratio turned out to be 0.999 ± 0.041. For the sequence TGGGAGATAT, the switch fluorescence ratio came out at 1 ± 0.028. As to AGGGAGAATT, the switch fluorescence ratio stood at 1 ± 0.013. With CACTGTATCG, the switch fluorescence ratio stood at 1.13 ± 0.063. ACCATATTTT: the switch fluorescence ratio stood at 1.073 ± 0.0094. For GGGTGGAAAG, the switch fluorescence ratio was 0.984 ± 0.041. For TGCTTCGTGC, the switch fluorescence ratio came out at 0.996 ± 0.012. With GCTGGGGTCG the figure was 0.9631 ± 0.0029; with GTTTAAAGGT, 0.996 ± 0.024; with AGGTAGAATA, 0.989 ± 0.031.

As to TCAGGGGCGC, the switch fluorescence ratio stood at 0.971 ± 0.031. Regarding TTGTGGGTCG, the switch fluorescence ratio was determined as 0.984 ± 0.031. As to ACAGGTACAT, the switch fluorescence ratio stood at 1.12 ± 0.034. With ACGTGACAGG, the switch fluorescence ratio was 1.22 ± 0.013. With CAGTAAGTGG, the switch fluorescence ratio was determined as 0.999 ± 0.02. With CGGAAGGGTA the figure was 0.989 ± 0.036.

On to TTTTTTTCCG, for which the switch fluorescence ratio is 1.012 ± 0.0081. As to TGGACATGGT, the switch fluorescence ratio came out at 0.9856 ± 0.005. To AGGGTACTTG belongs 1 ± 0.03; to TTGACCAATA, 1.12 ± 0.016. TTAACGCAA: the switch fluorescence ratio was found to be 3.6 ± 2. GGGTCATTAA: the switch fluorescence ratio was 0.9905 ± 0.0088.

Take GGGGAGTGGG: the switch fluorescence ratio turned out to be 0.989 ± 0.051. In the case of GCTGGGGTTG, the switch fluorescence ratio came to 0.9839 ± 0.003. With AGTGTAAAGG the figure was 0.991 ± 0.076. To TCATGGTGTC belongs 1.01 ± 0.018; to TTAAGTCATT, 0.986 ± 0.039. TAATGAGGTC: the switch fluorescence ratio was 0.99 ± 0.046. For CAAAGGGGGT, the switch fluorescence ratio stood at 1 ± 0.016. Turning to ACTTTGGGCG, the switch fluorescence ratio came out at 0.932 ± 0.059. Consider ATTTTACGAT, for which the switch fluorescence ratio is 0.999 ± 0.049. To TTCGGGCGAT belongs 1.01 ± 0.013. With TTGAGTCGTC the figure was 0.962 ± 0.011; with CCAGGTGTTA, 2.31 ± 1.8; with GTTGGTGGGA, 0.973 ± 0.025. On to ATAGGTGGTT, for which the switch fluorescence ratio was 0.994 ± 0.019.

With AGAAAAAATT, the switch fluorescence ratio is 1 ± 0.017. Regarding GAAGAACTGG, the switch fluorescence ratio stood at 0.991 ± 0.054. In the case of TCTCCGGGGA, the switch fluorescence ratio was found to be 1.2077 ± 0.0006.

Regarding GGTCGCAGTC, the switch fluorescence ratio was determined as 0.9649 ± 0.0016. Regarding GCCATTGTGG, the switch fluorescence ratio was found to be 0.99 ± 0.019.

With AACCGGATCG, the switch fluorescence ratio was found to be 1.034 ± 0.01.

In the case of TAAGTCGGTC, the switch fluorescence ratio was 0.9827 ± 0.0011. Consider ATCGGTACGT, for which the switch fluorescence ratio stood at 1.03 ± 0.021.

Regarding TTGGATTCCC, the switch fluorescence ratio was 0.977 ± 0.064. To TGGAGGAGAG belongs 0.99 ± 0.018; to TTATGTTCAG, 1.04 ± 0.034; to TAGGTCTGGG, 1.01 ± 0.036.

Turning to CGGGGCTGGC, the switch fluorescence ratio came out at 1.2 ± 0.13.

Take TCTAAGTTA: the switch fluorescence ratio is 0.998 ± 0.012. With GGGTGCATAG the figure was 1.03 ± 0.045.

For AATTAATATT, the switch fluorescence ratio was determined as 0.988 ± 0.021. As to GTGGAAAGCG, the switch fluorescence ratio worked out at 0.981 ± 0.059. To TTTGGGCCTG belongs 1.001 ± 0.0022; to CATGTTTTGG, 0.9836 ± 0.0043. With CAACAAGGGA the figure was 1.04 ± 0.018; with GTAATTCAGA, 0.99 ± 0.037; with AGGAGGATGT, 0.98 ± 0.01. Turning to GACTGATCGT, the switch fluorescence ratio worked out at 1.008 ± 0.0059.

As to TTTTCGAATA, the switch fluorescence ratio was found to be 1.009 ± 0.005.

For CAGGGGTTTA, the switch fluorescence ratio stood at 1.03 ± 0.034. Turning to GTTAGGGTTG, the switch fluorescence ratio came to 1.02 ± 0.045.

As for TGATGAGATT, the switch fluorescence ratio came out at 0.999 ± 0.02. With GAACTTGTCT the figure was 1.02 ± 0.036. With GAGGAAGTCT the figure was 1.03 ± 0.026. With CTGGTTTCGA the figure was 1.017 ± 0.0082; with ATAGGGGCAT, 1 ± 0.025.

Regarding TCGGGACGGG, the switch fluorescence ratio came to 1.01 ± 0.013. For the sequence CCCCCGGTTT, the switch fluorescence ratio worked out at 1.12 ± 0.044. To GAGTTGAAAA belongs 0.9868 ± 0.001. With AAATTGGCTT the figure was 0.97 ± 0.044; with GCGAGCGCTG, 1.02 ± 0.032.

On to CTAGGTTAAA, for which the switch fluorescence ratio came out at 0.988 ± 0.023.

In the case of GGGTATGGAG, the switch fluorescence ratio came to 1.02 ± 0.02. With TCGGCCGGGG the figure was 1.02 ± 0.015; with CAGTGGTCGG, 1 ± 0.038. Regarding GTTGGGGTTG, the switch fluorescence ratio amounted to 1.01 ± 0.025.

For the sequence TTAAGTTGTG, the switch fluorescence ratio was found to be 0.9827 ± 0.0013. Take GGCACCTACG: the switch fluorescence ratio came out at 1.53 ± 0.14. For TGACCTGCAC, the switch fluorescence ratio stood at 1.51 ± 0.034.

For the sequence TGGGCCGGTA, the switch fluorescence ratio was found to be 1.02 ± 0.031.

For the origin of these results see the supplement of paper PMC10126150.
